Results from US20230265208A1.

How the values were obtained:
[1] = molecular target: MUC1 on HCT116/MUC1 cells (human) (UniProt P15941); experiment: flow cytometry on HCT116-MUC1 cells, 5 µg isotype control, 60 min on ice
[2] = molecular target: MUC1 on HCT116/MUC1 cells (human) (UniProt P15941); experiment: flow cytometry titration on HCT116/MUC1 cells; isotype control

Chain of MUC1 on HCT116/MUC1 cells (human) (P15941 24-1255): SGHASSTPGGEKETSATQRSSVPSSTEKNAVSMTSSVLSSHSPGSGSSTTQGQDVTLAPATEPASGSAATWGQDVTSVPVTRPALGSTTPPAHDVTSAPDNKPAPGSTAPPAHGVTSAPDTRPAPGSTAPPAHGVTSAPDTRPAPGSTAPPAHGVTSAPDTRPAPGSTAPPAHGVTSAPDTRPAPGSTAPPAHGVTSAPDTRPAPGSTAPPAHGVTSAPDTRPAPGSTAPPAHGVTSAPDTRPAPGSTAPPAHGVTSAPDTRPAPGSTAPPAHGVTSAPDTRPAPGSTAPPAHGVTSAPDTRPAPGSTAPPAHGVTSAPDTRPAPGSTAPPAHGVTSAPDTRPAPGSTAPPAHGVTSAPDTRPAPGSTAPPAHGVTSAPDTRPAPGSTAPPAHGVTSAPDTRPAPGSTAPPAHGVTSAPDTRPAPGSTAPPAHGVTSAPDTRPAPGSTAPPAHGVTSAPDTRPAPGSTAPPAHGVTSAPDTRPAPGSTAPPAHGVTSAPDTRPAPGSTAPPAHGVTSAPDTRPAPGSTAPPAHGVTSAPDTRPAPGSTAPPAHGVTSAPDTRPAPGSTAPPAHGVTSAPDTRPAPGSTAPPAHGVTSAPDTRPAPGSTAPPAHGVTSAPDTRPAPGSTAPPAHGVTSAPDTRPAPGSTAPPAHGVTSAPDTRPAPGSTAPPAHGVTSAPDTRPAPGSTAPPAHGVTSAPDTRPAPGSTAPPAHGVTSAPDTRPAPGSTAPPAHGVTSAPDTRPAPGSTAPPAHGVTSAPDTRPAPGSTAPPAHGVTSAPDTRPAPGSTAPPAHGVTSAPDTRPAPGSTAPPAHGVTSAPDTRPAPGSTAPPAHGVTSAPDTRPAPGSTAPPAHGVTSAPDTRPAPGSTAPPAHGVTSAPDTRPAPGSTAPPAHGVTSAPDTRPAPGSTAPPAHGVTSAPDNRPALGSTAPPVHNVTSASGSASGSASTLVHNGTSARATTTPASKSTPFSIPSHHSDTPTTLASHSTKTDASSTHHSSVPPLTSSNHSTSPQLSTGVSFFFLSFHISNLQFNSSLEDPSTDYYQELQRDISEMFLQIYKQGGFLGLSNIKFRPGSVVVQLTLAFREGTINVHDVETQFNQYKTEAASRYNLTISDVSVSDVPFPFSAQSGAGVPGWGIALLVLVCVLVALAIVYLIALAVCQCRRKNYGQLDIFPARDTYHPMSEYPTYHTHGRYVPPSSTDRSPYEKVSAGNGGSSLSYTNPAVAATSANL

Substance | number over the gate bar (share of cells in the positive gate) [1] | EC50 [2] [nM]
Control (antibody) | 0.6 | –
Human IgG (antibody) | – | 0.292
